Experimental data reported in patent publication US20190359951.

Columns and labels:
Assay in all cases: cell_activity
[1] = system: TALE #28-LSD1 fusion (ZFPM2 +45 enhancer) (synthetic construct; LSD1 Homo sapiens); settings: K562; histone modification levels reduced at target; expression change not statistically significant; +45 assigned to #28 from coordinates
[2] = system: TALE #14-LSD1 fusion (synthetic construct; LSD1 Homo sapiens); settings: K562 3'DGE confirmed by RT-qPCR; #14 identified via cDNA qPCR primer set in Table 2
[3] = system: TALE #11-LSD1 fusion (ZFPM2 +16 enhancer) (synthetic construct; LSD1 Homo sapiens); settings: K562; histone modification levels reduced at target; expression change not statistically significant; +16 assigned to #11 from coordinates
[4] = system: SCL enhancer TALE-LSD1 fusion (synthetic construct; LSD1 Homo sapiens); settings: K562 ChIP-qPCR vs mCherry; H3K27ac reduced >4-fold; target assigned to #4 by inference
[5] = system: TALE #25-LSD1 fusion (ZFPM2 +10 enhancer) (synthetic construct; LSD1 Homo sapiens); settings: K562 RT-qPCR; TALE #25 without LSD1 had no effect on ZFPM2

TAAGTCTACATATAGTATCC (double strand) [TALE #28 target chr8:106,376,850]
activity (% ZFPM2 expression reduction) [1]: 22

TAGCCGCGAGGAAGGCG (double strand) [TALE #14 target chrX:49,023,709]
activity (fold nearby gene down-regulation) [2]: > 1.5

TCCAGTCCCTGGCTCCCATG (double strand) [TALE #11 target chr8:106,347,824]
activity (% ZFPM2 expression reduction) [3]: 13

TCCGTGGCTGCCAGTCTG (double strand) [SCL enhancer TALE target (TALE #4, chr1:47,647,018)]
activity (fold H3K4me2 reduction) [4]: 3

TTAAGCTTCTGAAGTCAG (double strand) [TALE #25 target chr8:106,341,287]
activity (fold ZFPM2 expression reduction) [5]: 2
